Experimental data reported in US20040146984.

How the values were obtained:
[1] = system: peptide in which the LPSTGE was reversed (EGTSPL)
[2] = system: peptide in which the LPSTGE was randomly placed (TEPGSL)
[3] = system: T1, LPXTG-containing peptide KRQLPSTGETANPFY from the streptococcal M6 protein
T1 sequence: KRQLPSTGETANPFY

[4] = target: native bovine serum albumin (UniProt P02769)
Chain of native bovine serum albumin (P02769 25-607): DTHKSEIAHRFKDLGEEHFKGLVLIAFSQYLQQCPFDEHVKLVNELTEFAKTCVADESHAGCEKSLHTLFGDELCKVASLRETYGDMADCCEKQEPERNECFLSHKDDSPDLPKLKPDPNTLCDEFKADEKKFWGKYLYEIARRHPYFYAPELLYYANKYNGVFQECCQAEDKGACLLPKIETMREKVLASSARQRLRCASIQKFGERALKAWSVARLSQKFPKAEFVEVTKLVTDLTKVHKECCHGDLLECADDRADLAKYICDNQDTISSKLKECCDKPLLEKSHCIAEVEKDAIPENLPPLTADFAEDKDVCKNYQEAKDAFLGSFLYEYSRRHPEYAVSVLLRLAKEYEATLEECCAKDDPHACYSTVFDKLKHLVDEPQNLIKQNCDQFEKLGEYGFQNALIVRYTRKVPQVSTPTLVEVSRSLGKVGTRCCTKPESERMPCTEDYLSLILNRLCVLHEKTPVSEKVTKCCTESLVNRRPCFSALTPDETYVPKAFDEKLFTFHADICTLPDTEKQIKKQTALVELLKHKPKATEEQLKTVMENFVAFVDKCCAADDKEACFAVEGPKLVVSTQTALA

**Q.** With LPXTGase as the substance, how does the “cleavage of bead-bound or free peptide” value [1] read?
**A.** no cleavage was observed (not shown)

**Q.** What about the “cleavage of bead-bound or free peptide” value [2] of the same substance?
**A.** no cleavage was observed (not shown)

**Q.** What about the % of control (Calcium chloride 20 mM) [3] of the same substance?
**A.** 23 % of control

**Q.** What about the % of control (Control, no salt) [3] of the same substance?
**A.** 100 % of control

**Q.** And the % of control (EDTA 20 mM) [3]?
**A.** 5.2 % of control

**Q.** What about the % of control (Hydroxylamine-HCl 100 mM) [3] of the same substance?
**A.** 27 % of control

**Q.** What about the % of control (Magnesium chloride 20 mM) [3] of the same substance?
**A.** 20 % of control

**Q.** And the % of control (Potassium chloride 100 mM) [3]?
**A.** 20 % of control

**Q.** What about the % of control (Putrescene chloride 20 mM) [3] of the same substance?
**A.** 21 % of control

**Q.** What about the % of control (Sodium chloride 100 mM) [3] of the same substance?
**A.** 16 % of control

**Q.** What about the % of control (Sodium phosphate 20 mM) [3] of the same substance?
**A.** 49 % of control

**Q.** What about the % of control (Sodium sulfate 20 mM) [3] of the same substance?
**A.** 57 % of control

**Q.** And the “Km (Lineweaver-Burk plot of cleavage of 125I-labeled peptide, 20 to 240 µM, 2.4 µM enzyme, 30 min)” value [3]?
**A.** Km of 0.26 mM

**Q.** What about the “Vmax (Lineweaver-Burk plot of cleavage of 125I-labeled peptide)” value [3] of the same substance?
**A.** Vmax of 67 µM in 30 min when 2.4 µM of enzyme was used in the assay

**Q.** And the “cleavage of bead-bound peptide, N-terminal sequencing of the fragment” value [3]?
**A.** the enzyme cleaved after glutamic acid within the LPSTGE (SEQ ID NO:3) sequence releasing the TANPFY (SEQ ID NO:6) peptide fragment

**Q.** What about the “cleavage of free peptide, sequencing of the fragments” value [3] of the same substance?
**A.** the enzyme cleaved the free KRQLPSTGETANPFY (SEQ ID NO:2) peptide at two sites, after the serine and the glutamic acid of LPSTGE

**Q.** And the peptide cleaved, cpm (Calcium chloride 20 mM) [3]?
**A.** 9710 cpm

**Q.** What about the peptide cleaved, cpm (Control, no salt) [3] of the same substance?
**A.** 41500 cpm

**Q.** What about the peptide cleaved, cpm (EDTA 20 mM) [3] of the same substance?
**A.** 2150 cpm

**Q.** And the peptide cleaved, cpm (Hydroxylamine-HCl 100 mM) [3]?
**A.** 11200 cpm

**Q.** And the peptide cleaved, cpm (Magnesium chloride 20 mM) [3]?
**A.** 8620 cpm

**Q.** And the peptide cleaved, cpm (Potassium chloride 100 mM) [3]?
**A.** 8610 cpm

**Q.** And the peptide cleaved, cpm (Putrescene chloride 20 mM) [3]?
**A.** 8710 cpm

**Q.** What about the peptide cleaved, cpm (Sodium chloride 100 mM) [3] of the same substance?
**A.** 6720 cpm

**Q.** And the peptide cleaved, cpm (Sodium phosphate 20 mM) [3]?
**A.** 20600 cpm

**Q.** What about the peptide cleaved, cpm (Sodium sulfate 20 mM) [3] of the same substance?
**A.** 23500 cpm

**Q.** What about the “cleavage (SDS-PAGE for degradation)” value [4] of the same substance?
**A.** No cleavage was observed when native bovine serum albumin was reacted in a similar way
